Substrate in series [1]: C[S+]([O-])CC[C@H](N)C(=O)O
Description: purified protein. The series is classed as biochemical, Cereibacter sphaeroides. To be noted: Britton-Robinson buffer pH 6.0, 46 nM DorA, electron donor dithionite-reduced benzyl viologen, R,S diastereomer mixture used, KM already divided by 2 to count only the S-diastereomer.

Substrate in series [2]: C[S+](C)[O-]
Description: purified protein. To be noted: Britton-Robinson buffer pH 6.0, 46 nM DorA, electron donor dithionite-reduced benzyl viologen.

B1: DorA DMSO reductase (Cereibacter sphaeroides) (protein)
chain: EGLANGEVMSGCHWGVFKARVENGRAVAFEPWDKDPAPSHQLPGVLDSIYSPTRIKYPMVRREFLEKGVNADRSTRGNGDFVRVTWDEALDLVARELKRVQESYGPTGTFGGSYGWKSPGRLHNCQVLMRRALNLAGGFVNSSGDYSTAAAQIIMPHVMGTLEVYEQQTAWPVVVENTDLMVFWAADPMKTNEIGWVIPDHGAYAGMKALKEKGTRVICINPVRTETADYFGADVVSPRPQTDVALMLGMAHTLYSEDLHDKDFLENCTTGFDLFAAYLTGESDGTPKTAEWAAEICGLPAEQIRELARSFVAGRTMLAAGWSIQRMHHGEQAHWMLVTLASMIGQIGLPGGGFGLSYHYSNGGSPTSDGPALGGISDGGKAVEGAAWLSESGATSIPCARVVDMLLNPGGEFQFNGATATYPDVKLAYWAGGNPFAHHQDRNRMLKAWEKLETFIVQDFQWTATARHADIVLPATTSYERNDIESVGDYSNRAILAMKKVVDPLYEARSDYDIFAALAERLGKGAEFTEGRDEMGWISSFYEAAVKQAEFKNVAMPSFEDFWSEGIVEFPITEGANFVRYADFREDPLFNPLGTPSGLIEIYSKNIEKMGYDDCPAHPTWMEPAERLGGAGAKYPLHVVASHPKSRLHSQLNGTSLRDLYAVAGHEPCLINPADAAARGIADGDVLRVFNDRGQILVGAKVSDAVMPGAIQIYEGGWYDPLDPSEEGTLDKYGDVNVLSLDVGTSKLAQGNCGQTILADVEKYAGAPVTVTVFDTPKGA
notes: full-length dorA with C-terminal 6-His tag (kept), pIND4-DorA-His; expressed in R. sphaeroides f. sp. denitrificans IL106 dorA- (host) and purified from periplasm; monomeric
Consider B1, for which, in series [1], the Km (commonly the concentration of substrate that gives half-maximal velocity) is 68.8 ± 5.7 µM; the kcat (as a rule, the number of substrate molecules converted per active site and unit of time at saturation) is 4.2 ± 0.1 s⁻¹; the kcat/Km (as a rule, the second-order rate constant that governs catalysis at low substrate concentration) was determined as 61000 M⁻¹ s⁻¹. Besides, in series [2], the Km is 1.8 ± 0.4 µM, the kcat stood at 3.9 s⁻¹ and the specificity constant (kcat/Km) was 2.2e+06 M⁻¹ s⁻¹.

For the origin of these results see PMC7402097, “Reduction of Protein Bound Methionine Sulfoxide by a Periplasmic Dimethyl Sulfoxide Reductase” (Antioxidants, 2020).
